This note sets out measurements from publication PMC5176304 (PLoS ONE, 2016).

What all share (assay): SEC-MALS; size exclusion chromatography with multi-angle light scattering of Ni-purified uricases dialyzed into PBS; noncovalent molecular weight compared with the theoretical tetramer
Data set [1] concerns the target Granulicella tundricola uricase (Granulicella tundricola).
Data set [2] concerns the target Kyrpidia tusciae uricase (Kyrpidia tusciae).
The target in data set [3] is Terriglobus saanensis uricase (Terriglobus saanensis).
Data set [4] addresses Solibacter usitatus uricase (Solibacter usitatus).
Data set [5] concerns the target Deinococcus radiodurans uricase (Deinococcus radiodurans).
The target in data set [6] is Deinococcus geothermalis uricase (Deinococcus geothermalis).
Data set [7] concerns the molecule itself.

In data set [1], “Granulicella tundricola uricase (enzyme)” gave a stoichiometry N of 4.
The molecule Kyrpidia tusciae uricase (enzyme) yielded a stoichiometry N in data set [2] of 4.
In the case of Terriglobus saanensis uricase (enzyme), the stoichiometry N in data set [3] came to 4.
In turn, Solibacter usitatus uricase (enzyme) showed a stoichiometry N in data set [4] of 4.
Consider “Deinococcus radiodurans uricase (enzyme)”, for which, in data set [5], the stoichiometry N was found to be 4.
In the case of “Deinococcus geothermalis uricase (enzyme)”, the stoichiometry N in data set [6] turned out to be 4.

B1: Arthrobacter globiformis uricase (C-terminally truncated by 11 amino acids, N-terminal His tag) (enzyme, UniProt D0VWQ1 1-291, looked up)
chain: MTATAETSTGTKVVLGQNQYGKAEVRLVKVTRNTARHEIQDLNVTSQLRGDFEAAHTAGDNAHVVATDTQKNTVYAFARDGFATTEEFLLRLGKHFTEGFDWVTGGRWAAQQFFWDRINDHDHAFSRNKSEVRTAVLEISGSEQAIVAGIEGLTVLKSTGSEFHGFPRDKYTTLQETTDRILATDVSARWRYNTVEVDFDAVYASVRGLLLKAFAETHSLALQQTMYEMGRAVIETHPEIDEIKMSLPNKHHFLVDLQPFGQDNPNEVFYAADRPYGLIEATIQREGSRAD
notes: Synthetic gene in a modified pET15b-based vector; also called RGD-containing Arthrobacter globiformis uricase; uricase containing RGD
In the case of B1, the “stoichiometry N” value in data set [7] worked out at 4.

The term stoichiometry N denotes the number of molecules, sites or subunits per partner or assembly.
